Results reported in patent US12702697B2, “Compositions and methods for treatment of headache disorders and neuropathic pain” (Washington University, priority 2019, dated 2026).

What was measured:
[1] = test system: mTBI-induced facial mechanical hypersensitivity in mice; assay: Mouse model of mild traumatic brain injury-induced post-traumatic headache (facial mechanical thresholds, low-dose NTG priming); assay type: in vivo
From the text: Mouse model of mild traumatic brain injury-induced post-traumatic headache. Adult Swiss Webster mice (30-35 g) were subjected to mTBI using a modified closed head weight-drop method. 43, 58 Briefly, mice were anesthetized with 3% isoflurane for 90 seconds and were placed chest down on a foam sponge (4-cm thickness and 0.062-g/cm3 density) directly underneath a hollow cylindrical tube (1.5-cm inner diameter) placed approximately 1 cm vertically over the mouse's head. To induce mTBI, a 30-g weight (1.3-cm diameter and 3.4-cm height) was dropped through the tube from a height of 80 cm, striking the center point between the ears once. All mice regained righting reflex within 2 minutes. […] Sham mice were anesthetized with 3% isoflurane for 90 seconds but not subjected to the weight drop. Facial mechanical thresholds were measured before and at various time points after mTBI. Daily ldIL2 or saline were administered 1 or 7 days after the sham or mTBI procedure. To reveal mTBI-induced hyperalgesia priming, mice received daily i.p. injections of NTG (0.1 mg/kg, i.p.) for 4 to 6 days, starting at 35 days after mTBI. Facial mechanical thresholds were measured between day 35 and 43 days after mTBI. Note that on the days that the mouse behaviors were tested, NTG and/or IL2 were always injected after completing the behavioral tests.
(§1) Withdrawal responses to facial mechanical stimuli. The hair on mouse forehead (above and between 2 eyes) was shaved the day before testing. On the test day, the experimenter gently held the mouse on the palm with minimal restraint and applied the calibrated von Frey filament perpendicularly to the shaved skin, causing the filament to bend for 5 seconds. A positive response was determined by the following criteria as previously described: mouse vigorously stroked its face with the forepaw, head withdrawal from the stimulus, or head shaking (Elliott M B et al., Headache 2012; 52:966-84). The up-down paradigm was used to determine the 50% withdrawal threshold.

[2] = test system: sumatriptan-induced cutaneous hypersensitivity in mice; assay: Mouse model of medication overuse headache (repeated sumatriptan); assay type: in vivo
Protocol: Mouse model of medication overuse headache. After measuring baseline nociceptive responses, mice received daily i.p. injections of sumatriptan succinate (0.6 mg/kg; Fresenius Kabi, Lake Zurich, IL44). Daily ld-IL2 or saline were administered after mice received 2 sumatriptan injections. Facial and hindpaw mechanical thresholds were measured every 2 days. Note that on the days that the mouse behaviors were tested, sumatriptan and/or IL2 were always injected after completing the behavioral tests.
(§2) Responses to mechanical stimuli on the hindpaw. Mice were habituated in individual clear plexiglass boxes (11×11×15 cm) for 1 to 2 hours. A series of calibrated von Frey filaments was used to apply mechanical stimuli to the plantar surface of the hindpaws. The up-down paradigm was used to determine the 50% withdrawal threshold. The thresholds for both hindpaws were averaged to yield a single value for each mouse.
as §1

[3] = test system: NTG-induced skin hypersensitivity in mice; assay: Mouse model of chronic migraine (repetitive NTG): hindpaw and facial von Frey thresholds, cheek acetone test; assay type: in vivo
Protocol: Mouse model of chronic migraine and drug treatments: After measuring baseline nociceptive responses, mice received repetitive intraperitoneal (i.p.) injections of NTG (10 mg/kg in saline with 1% propylene glycol) or vehicle (saline with 1% propylene glycol in saline, 10 mL/kg) every 2 days for 4 or more times as described previously (Pradhan A A, et al. PAIN 2014; 155:269-74). Nocifensive behaviors were measured 2 days after each injection (before the next treatment). NTG (SDM27; Copperhead Chemical, Tamaqua, PA) was freshly diluted from the stock (10% in propylene glycol, aliquoted in airtight glass vials and stored at 4° C.) with saline for every injection. Recombinant mouse IL2 (carrier-free; Biolegend, San Diego, CA) was freshly diluted from the stock (1 mg/mL aliquots at […]) every day. Each mouse received daily i.p. injection of […] IL2 in […] saline. The control mice received daily i.p. injections of […] saline. In Treg depletion experiment, mice received 1 i.p. injection of antibodies against CD25 ([…], BP0012; BioXcell, West Lebanon, NH11) or control IgG (BP0088; BioXcell). The antibody binds to CD25 on Treg cell membrane and depletes Treg cells through Fcg receptor III-mediated antibody-dependent cellular cytotoxicity and antibody-dependent cellular phagocytosis (Setiady Y Y, et al, Eur J Immunol 2010; 40:780-6). Note that on the days that the mouse behaviors were tested, NTG, IL2 and/or antibodies were always injected after completing the behavioral tests.
as §2
Cheek acetone test. The acute nocifensive response to acetone-evoked evaporative cooling on mouse cheek was measured as previously described (Constandil L, et al. J Pain 2012; 13:579-89). The day before testing, both cheeks were shaved (6.5×12 mm) under brief anesthesia (2% isoflurane in 100% oxygen). On the test day, mice were habituated in individual plexiglass cylinders (11-cm diameter, 15-cm height) situated in front of 3-way mirrors for 1 to 2 hours. Acetone ([…]) was applied to the shaved cheeks and immediately returned mice to the cylinders. Time spent wiping the treated area was recorded by a video camera and quantified offline. For individual mice, acetone was applied alternatingly to both cheeks at 10-minute intervals, and the duration of behavior was averaged from 4 applications.
as §1, with “threshold. […]” for “threshold.”

[4] = human, in vivo; cited from earlier work
[5] = daily ld-IL2 starting 1 day after mTBI for 9 days, female Swiss Webster
[6] = ld-IL2 pretreatment, female C57BL/6J

B1: ld-IL2: Recombinant mouse IL2 (carrier-free; Biolegend), given as daily low-dose i.p. injection (protein, UniProt P04351 21-169, looked up)
Interleukin-2: APTSSSTSSSTAEAQQQQQQQQQQQQHLEQLLMDLQELLSRMENYRNLKLPRMLTFKFYLPKQATELKDLQCLEDELGPLRHVLDLTQSKSFQLEDAENFISNIRVTVVKLKGSDNTFECQFDDESATVVDFLRRWIAFCQSIISTSPQ
[1]; 3 weeks after cessation of ld-IL2, male Swiss Webster
  persistent facial mechanical hypersensitivity to repeated low-dose NTG after mTBI: failed to establish
[1]; 9 days of ld-IL2 treatment, male and female mice
  duration of protection from mTBI-induced hyperalgesia priming: at least 30 days
[1]; after 3 days of ld-IL2 (day 10), started post-mTBI day 7 (about 26%), male Swiss Webster
  facial mechanical threshold, % of the baseline value: 87%
[1]; daily ld-IL2, male Swiss Webster
  facial mechanical sensitivity of sham mice: did not change
[1]; [5]
  hyperalgesia priming revealed by repeated low-dose NTG: completely prevented
  mTBI-induced acute facial mechanical hypersensitivity: completely prevented
[1]; day 15, ld-IL2 day 7 onward for 9 days, male Swiss Webster
  mTBI-induced facial skin hypersensitivity at the end of ld-IL2 treatment: fully reversed
[2]; after 4 to 6 ld-IL2 injections (day 7-9)
  sumatriptan induced cutaneous hypersensitivity: significantly attenuated
[2]; after 8 days of IL2 treatment (day 11)
  sumatriptan induced cutaneous hypersensitivity: completely reversed
[2]; continuous ld-IL2 (day 13)
  cutaneous hypersensitivity in response to subsequent sumatriptan injections: neither male nor female mice developed cutaneous hypersensitivity
[3]; 5 or 15 days of ld-IL2 injections, male C57BL/6J
  basal hindpaw mechanical sensitivity: not altered
[3]; after 7 to 9 days of IL2 injections, female Swiss Webster
  established persistent facial mechanical hypersensitivity resulting from repeated NTG injections: completely reverse
[3]; continuous ld-IL2, female C57BL/6J, day 7-11
  behavioral sensitization by subsequent NTG administrations: prevented
[3]; daily ld-IL2, female Swiss Webster
  baseline facial mechanical threshold: not altered
[3]; day 4-10, male C57BL/6J
  daily ld-IL2 treatments to completely reverse NTG-induced facial hypersensitivity, first session: 7
[3]; day 5-11, male C57BL/6J
  slope of ld-IL2-induced reversal (change of threshold per day), first session: 5.3±0.9
[3]; day 11, after 7 ld-IL2 injections, female C57BL/6J
  acute reduction of facial mechanical threshold 3 hours after NTG: did not cause an acute reduction
[3]; day 11-13, male C57BL/6J
  NTG injections needed after cessation of IL2 to lower the threshold to the NTG+saline level, first session: 2 NTG injections
[3]; day 19-22, male C57BL/6J
  ld-IL2 injections required to completely reverse NTG-induced mechanical hypersensitivity, second session: 4 injections
[3]; day 19-23, male C57BL/6J
  slope of ld-IL2-induced reversal (change of threshold per day), second session: 10.3±1.3
[3]; day 23-27, male C57BL/6J
  NTG injections needed after cessation of the second ld-IL2 treatment to reduce the threshold to the NTG+saline level: 3 NTG injections
[3]; delayed ld-IL2 started after 2 NTG injections, female Swiss Webster
  development of facial cold hypersensitivity: blocked the development
[3]; female C57BL/6J
  ld-IL2 injections sufficient to completely reverse the effect of repeated NTG: 3 injections
[3]; ld-IL2 pretreatment starting 5 days before first NTG, male C57BL/6J
  NTG-induced hindpaw mechanical hypersensitivity: completely blocked
[3]; [6]
  NTG-induced facial cold hypersensitivity: prevented the development
  basal responses to acetone-induced cooling: did not change
[3]; ld-IL2 started after 2 NTG injections, female Swiss Webster
  days of ld-IL2 treatment after which NTG-induced mechanical hypersensitivity started to reverse: 5 days
[3]; mice given anti-CD25 antibody 3 days earlier, male C57BL/6J
  effect of ld-IL2 on NTG-induced facial skin hypersensitivity in Treg-depleted mice: completely abolished
[4]
  tolerability in patients: well tolerated
